T1: NRS natively expressed in human cells (HeLa cell lysate) (human, UniProt O43776 1-548)
T1 construct: mature; Target of the western blot; also called human 세포에서 원래 발현된 NRS
T1 sequence (looked up): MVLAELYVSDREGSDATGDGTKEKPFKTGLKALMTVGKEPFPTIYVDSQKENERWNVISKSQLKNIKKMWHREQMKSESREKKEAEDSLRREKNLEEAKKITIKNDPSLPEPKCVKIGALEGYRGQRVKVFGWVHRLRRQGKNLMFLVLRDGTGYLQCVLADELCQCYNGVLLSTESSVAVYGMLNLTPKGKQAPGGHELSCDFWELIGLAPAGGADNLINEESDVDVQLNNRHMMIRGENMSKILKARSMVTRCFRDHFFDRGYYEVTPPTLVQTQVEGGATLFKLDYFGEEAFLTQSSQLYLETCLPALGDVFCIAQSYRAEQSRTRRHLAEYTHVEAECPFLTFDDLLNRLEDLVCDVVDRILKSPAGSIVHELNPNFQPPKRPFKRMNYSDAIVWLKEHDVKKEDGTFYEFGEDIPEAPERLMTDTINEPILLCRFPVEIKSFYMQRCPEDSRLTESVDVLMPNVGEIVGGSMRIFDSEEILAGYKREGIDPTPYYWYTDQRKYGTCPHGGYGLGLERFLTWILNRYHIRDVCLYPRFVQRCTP

B1: SEQ ID NO 42 (scFv)
scFv: EVQLLESGGGLVQPGGSLRLSCAASGFTFSNYSMSWVRQAPGKGLEWVSVISPGSGSKYYADSVKGRFTISRDNSKNTLYLQMNSLRAEDTAVYYCARTATIFDYWGQGTLVTVSSGGGGSGGGGSGGGGSQSVLTQPPSASGTPGQRVTISCTGSSSNIGSNYVSWYQQLPGTAPKLLIYADSQRPSGVPDRFSGSKSGTSASLAISGLRSEDEADYYCGTWDDSLSAYVFGGGTKLTVL
notes: It is probably the same molecule as one of Biocon-N1 to N5
B2: SEQ ID NO 70 (scFv)
scFv: EVQLLESGGGLVQTGGSLRLSCAASGFTFSDYAMSWVRQAPGKGLEWVSGISYSGGSTYYADSVKGRFTISRDNSKNTLYLQMNSLRAEDTAVYYCAKNSRHFDYWGQGTLVTVSSGGGGSGGGGSGGGGSQSVLTQPPSASGTPGQRVTISCSGSSSNIGSNDVTWYQQLPGTAPKLLIYSNSHRPSGVPDRFSGSKSGTSASLAISGLRSEDEADYYCGAWDDSLNGYVFGGGTKLTVL
notes: as for B1

Molecular target: T1, NRS natively expressed in human cells …
Assay: western blot on HeLa cell lysate with periplasmic scFv (clones from phage panning on NRS), anti-HA-HRP detection

| Binder | binding result |
| --- | --- |
| B1 | binds |
| B2 | binds |
